Test results from the Human Domainome abundance scans (Beltran et al. 2025).
± gives the uncertainty stated by the source.

B1: RAS guanyl-releasing protein 1, residues 539 to 593; numbered along this chain, O95267 (parent)
chain: GFPHNFQETTYLKPTFCDNCAGFLWGVIKQGYRCKDCGMNCHKQCKDLVVFECKK

Variants of: B1
Assay: abundance fitness (aPCA) (normalised: wild type 0, dead -1); higher = more abundant; growth selection in yeast, the domain comes from the species named
Settings: Homo sapiens

Variant	abundance fitness
GFPHNFQETTYLKPTFCDNCAGFLWGVIKQAYRCKDCGMNCHKQCKDLVVFECKK [G31A]	-0.092 ± 0.077
GFPHNFQETYYLKPTFCDNCAGFLWGVIKQGYRCKDCGMNCHKQCKDLVVFECKK [T10Y]	-0.291 ± 0.081
GFPHNFQETKYLKPTFCDNCAGFLWGVIKQGYRCKDCGMNCHKQCKDLVVFECKK [T10K]	-0.456 ± 0.17
GFPHNFQETTYLKPTFCDNCAGFLWGVIKQGLRCKDCGMNCHKQCKDLVVFECKK [Y32L]	-0.104 ± 0.055
GFPHNFQETTYLKPTFCDNCAGFLWGVIKQGYRCKDCGMNCHTQCKDLVVFECKK [K43T]	-0.024 ± 0.1
GFPHNFQETTYLKPTFCDNCAGFLWGVIEQGYRCKDCGMNCHKQCKDLVVFECKK [K29E]	-0.386 ± 0.096
GFPHNFQETTYLKPTFCDNCAGFLWGVIPQGYRCKDCGMNCHKQCKDLVVFECKK [K29P]	-0.556 ± 0.078
GFPHNFQETTYLKPTFCDNCAGFLWGVIKQGYRCKICGMNCHKQCKDLVVFECKK [D36I]	-0.028 ± 0.22
GFPHNFQETTYLKPTECDNCAGFLWGVIKQGYRCKDCGMNCHKQCKDLVVFECKK [F16E]	-0.408 ± 0.11
GFPHNFQETTYLKPTDCDNCAGFLWGVIKQGYRCKDCGMNCHKQCKDLVVFECKK [F16D]	-0.371 ± 0.1
GFPHNFQETTYLKPTCCDNCAGFLWGVIKQGYRCKDCGMNCHKQCKDLVVFECKK [F16C]	0.038 ± 0.11
GFPHNFQETTYLKPTQCDNCAGFLWGVIKQGYRCKDCGMNCHKQCKDLVVFECKK [F16Q]	-0.243 ± 0.14
GFPHNFQETTYLKPTFCDNCAGFLWGVIKQGYRCKDCGMNCHKQIKDLVVFECKK [C45I]	-0.554 ± 0.21
GFPHNFQETTYLKPTFCDNCAGFLWGVIKQGYRCKDCGMNCHKQGKDLVVFECKK [C45G]	-0.347 ± 0.063
GFPHNFQETTYLKPTFCDNCAGFLWGVIKQGYRTKDCGMNCHKQCKDLVVFECKK [C34T]	-0.776 ± 0.21
GFPHNFQETTYLKPTFCDNCAGFLWGVIKQGYRYKDCGMNCHKQCKDLVVFECKK [C34Y]	-0.922 ± 0.38
GFPHNFQETTYLKPTFCDNCAGFLWGVIKQGYRQKDCGMNCHKQCKDLVVFECKK [C34Q]	-0.924 ± 0.26
GFPHNFQETTYLTPTFCDNCAGFLWGVIKQGYRCKDCGMNCHKQCKDLVVFECKK [K13T]	-0.105 ± 0.1
GFPHNFQETTYLPPTFCDNCAGFLWGVIKQGYRCKDCGMNCHKQCKDLVVFECKK [K13P]	-0.507 ± 0.072
MFPHNFQETTYLKPTFCDNCAGFLWGVIKQGYRCKDCGMNCHKQCKDLVVFECKK [G1M]	0.477 ± 0.14
GFPHNFQETTYLKPTFCDNCAGFLWGVIKQGYRCKDCGMNCHKQCKDLVVAECKK [F51A]	-0.074 ± 0.083
GFPHNFQETTYLKPTFCDNCAGFLWGVIKQGYRCKDCGMNCHKQCKDLVVCECKK [F51C]	-0.061 ± 0.12
GFPHNFQETTALKPTFCDNCAGFLWGVIKQGYRCKDCGMNCHKQCKDLVVFECKK [Y11A]	-0.267 ± 0.098
GFPHNFQETTLLKPTFCDNCAGFLWGVIKQGYRCKDCGMNCHKQCKDLVVFECKK [Y11L]	-0.031 ± 0.071

Variant	abundance fitness
GFPHNFQEITYLKPTFCDNCAGFLWGVIKQGYRCKDCGMNCHKQCKDLVVFECKK [T9I]	-0.203 ± 0.13
GFPHNFQEFTYLKPTFCDNCAGFLWGVIKQGYRCKDCGMNCHKQCKDLVVFECKK [T9F]	-0.216 ± 0.19
GFPHNFQETTYLKPTFCDNCAGFLWGVIKQGYRCKDCGMNCHKQCKDLVVFECRK [K54R]	-0.028 ± 0.076
GFPHNFQETTYLKPTFCDNCAGFLWGVIKQGYRCKDCGMACHKQCKDLVVFECKK [N40A]	-0.081 ± 0.063
GFPHNFQETTYLKPTFCDNCAGFLWGVIKQGYRCKDCGMPCHKQCKDLVVFECKK [N40P]	-0.144 ± 0.04
GFPHNFQETTYLKPTFCDNCAGFLWGVIKQGYRCKDCGMCCHKQCKDLVVFECKK [N40C]	-0.137 ± 0.06
GFPHNFQETTYLKPTFCDNCAGFLWGVIKQGYRCKDCGMVCHKQCKDLVVFECKK [N40V]	-0.063 ± 0.044
GFPHNFQETTYLKPTFCDNCAGFLWGVIKQGYRCKDPGMNCHKQCKDLVVFECKK [C37P]	-1.07 ± 0.24
GFPHNFQETTYLKPTFCDNCAGFLWGVIKQGYRCKDRGMNCHKQCKDLVVFECKK [C37R]	-0.879 ± 0.077
GFPHNFQETTYLKPTFCDNCAGFLWGVIKQGYRCKDCGMNCHKQCKDLVVFDCKK [E52D]	0.104 ± 0.092
GFPHNFQETTYLKPTFCDNCAGFLWGVIKQGYRCKDCGMNCHKQCKDLVVFMCKK [E52M]	-0.121 ± 0.053
GFPHNFQETTYLKPTFCDNCAGFLWGVIKQGYRCKDCGMNCHKQCKDLVVFSCKK [E52S]	-0.203 ± 0.09
GFPHNFQETTYLKQTFCDNCAGFLWGVIKQGYRCKDCGMNCHKQCKDLVVFECKK [P14Q]	-1 ± 0.31
GFPHNFQETTYLKNTFCDNCAGFLWGVIKQGYRCKDCGMNCHKQCKDLVVFECKK [P14N]	-0.931 ± 0.35
GFPHNFQETTYLKPTFCDNCAGFLWGVIKQGYRCKDCGMNCHKQCKDLEVFECKK [V49E]	-0.001 ± 0.12
GFPHNFQETTYLKPTFCDNCAGFLWGVIKQGYRCKDCGMNCHKQCKDLNVFECKK [V49N]	0.035 ± 0.15
GFPHNFQETTYLKPTFCDNCAGFLWGVIKQGYRCKDCGMNCHKQCKDLLVFECKK [V49L]	-0.276 ± 0.095
GFPHNFQETTYLKPTFCDNCCGFLWGVIKQGYRCKDCGMNCHKQCKDLVVFECKK [A21C]	-0.009 ± 0.046
GFPHNFQETTYLKPTFCDNCEGFLWGVIKQGYRCKDCGMNCHKQCKDLVVFECKK [A21E]	-0.041 ± 0.11
GFPHNFQETTYLKPTFCDNCMGFLWGVIKQGYRCKDCGMNCHKQCKDLVVFECKK [A21M]	-0.162 ± 0.26
GFPHSFQETTYLKPTFCDNCAGFLWGVIKQGYRCKDCGMNCHKQCKDLVVFECKK [N5S]	-0.066 ± 0.071
GFPHRFQETTYLKPTFCDNCAGFLWGVIKQGYRCKDCGMNCHKQCKDLVVFECKK [N5R]	-0.169 ± 0.077
GFPHNFQETTYLKPTFCDNCAGMLWGVIKQGYRCKDCGMNCHKQCKDLVVFECKK [F23M]	-0.022 ± 0.089
GFPHNFQETTYLKPTFCDNCAGGLWGVIKQGYRCKDCGMNCHKQCKDLVVFECKK [F23G]	-0.328 ± 0.062
